Measured values as given in article PMC12516561 (2025).

B1: iRhom2 wild type (HA-tagged) [human] / V5-tagged FRMD8 [not stated] (parent complex)
chain 1: MASADKNGGSVSSVSSSRLQSRKPPNLSITIPPPEKETQAPGEQDSMLPEGFQNRRLKKSQPRTWAAHTTACPPSFLPKRKNPAYLKSVSLQEPRSRWQESSEKRPGFRRQASLSQSIRKGAAQWFGVSGDWEGQRQQWQRRSLHHCSMRYGRLKASCQRDLELPSQEAPSFQGTESPKPCKMPKIVDPLARGRAFRHPEEMDRPHAPHPPLTPGVLSLTSFTSVRSGYSHLPRRKRMSVAHMSLQAAAALLKGRSVLDATGQRCRVVKRSFAFPSFLEEDVVDGADTFDSSFFSKEEMSSMPDDVFESPPLSASYFRGIPHSASPVSPDGVQIPLKEYGRAPVPGPRRGKRIASKVKHFAFDRKKRHYGLGVVGNWLNRSYRRSISSTVQRQLESFDSHRPYFTYWLTFVHVIITLLVICTYGIAPVGFAQHVTTQLVLRNKGVYESVKYIQQENFWVGPSSIDLIHLGAKFSPCIRKDGQIEQLVLRERDLERDSGCCVQNDHSGCIQTQRKDCSETLATFVKWQDDTGPPMDKSDLGQKRTSGAVCHQDPRTCEEPASSGAHIWPDDITKWPICTEQARSNHTGFLHMDCEIKGRPCCIGTKGSCEITTREYCEFMHGYFHEEATLCSQVHCLDKVCGLLPFLNPEVPDQFYRLWLSLFLHAGVVHCLVSVVFQMTILRDLEKLAGWHRIAIIFILSGITGNLASAIFLPYRAEVGPAGSQFGLLACLFVELFQSWPLLERPWKAFLNLSAIVLFLFICGLLPWIDNIAHIFGFLSGLLLAFAFLPYITFGTSDKYRKRALILVSLLAFAGLFAALVLWLYIYPINWPWIEHLTCFPFTSRFCEKYELDQVLH
chain 2: MDGTEGSAGQPGPAERSHRSSVSSVGARAADVLVYLADDTVVPLAVENLPSLSAHELHRAVREVLQLPDIALDVFALWLVSPLLEVQLKPKHQPYKLGRQWPELLLRFTSAPDDDVAMDEPFLQFRRNVFFPKRRELQIHDEEVLRLLYEEAKGNVLAARYPCDVEDCEALGALVCRVQLGPYQPGRPAACDLREKLDSFLPAHLCKRGQSLFAALRGRGARAGPGEQGLLNAYRQVQEVSSDGGCEAALGTHYRAYLLKCHELPFYGCAFFHGEVDKPAQGFLHRGGRKPVSVAISLEGVHVIDSREKHVLLGLRFQELSWDHTSPEEEEPILWLEFDGDSEGTPVNKLLKIYSKQAELMSSLIEYCIELSQAAEPAGPQDSATGSPSDPSSSLAPVQRPKLRRQGSVVSSRIQHLSTIDYVEDGKGIRRVKPKRTTSFFSRQLSLGQGSYTVVQPGDSLEQG

Variants of: B1
Assay: co-immunoprecipitation (HA-IP) with western blot quantification; iRhom1/2 DKO HEK293T cells co-transfected with V5-tagged FRMD8; three independent experiments; read off a plot

In order of rising ratio to parent:
1. chain 1 P233A, chain 1 R234A, chain 1 R235A, chain 1 K236A, chain 1 R237A, chain 1 M238A  ~1.05
2. chain 1 P233A, chain 1 R234A, chain 1 R235A, chain 1 K236A, chain 1 R237A, chain 1 M238A, chain 1 S239A  ~1.1
3. chain 1 S239A  ~1.2
